Source: patent US20210115127A1 (SURFACE ONCOLOGY, published 2021)
Changes are numbered by the printed parent chain.

B1: recombinant human IL-27 (heterodimer of IL-27p28 and EBI3) (ligand)
chain 1: FPRPPGRPQLSLQELRREFTVSLHLARKLLSEVRGQAHRFAESHLPGVNLYLLPLGEQLPDVSLTFQAWRRLSDPERLCFISTTLQPFHALLGGLGTQGRWTNMERMQLWAMRLDLRDLQRHLRFQVLAAGFNLPEEEEEEEEEEEEERKGLLPGALGSALQGPAQVSWPQLLSTYRLLHSLELVLSRAVRELLLLSKAGHSVWPLGFPTLSPQP
chain 2: RKGPPAALTLPRVQCRASRYPIAVDCSWTLPPAPNSTSPVSFIATYRLGMAARGHSWPCLQQTPTSTSCTITDVQLFSMAPYVLNVTAVHPWGSSSSFVPFITEHIIKPDPPEGVRLSPLAERQLQVQWEPPGSWPFPEIFSLKYWIRYKRQGAARFHRVGPIEATSFILRAVRPRARYYVQVAAQDLTDYGELSDWSLPATATMSLGK
notes: Bought recombinant protein (R&D Systems 2526-IL) in the cell and ForteBio assays; also called rhIL-27
B2: human IL-27p28 subunit (ligand)
chain: B1 chain 1
B3: human EBI3 subunit (ligand)
chain: B1 chain 2
B4: anti-IL-27 Ab3 (antibody, V domains shown)
VH: EVQLVESGGGLVKPGGSLRLSCAASGFTFRSYGMNWVRQAPGKGLEWVSSISSSSSYIYYADSVKGRFTISRDNAKNSLYLQMNSLRAEDTAVYYCARDGGRTSYTATAHNWFDPWGQGTLVTVSS
VL: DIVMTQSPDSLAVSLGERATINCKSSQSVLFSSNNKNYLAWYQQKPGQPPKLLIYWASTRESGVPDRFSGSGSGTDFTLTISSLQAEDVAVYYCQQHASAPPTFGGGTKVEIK
B5: anti-IL-27 Ab1 (antibody, V domains shown)
VH: B4 VH with S50G, S55G
VL: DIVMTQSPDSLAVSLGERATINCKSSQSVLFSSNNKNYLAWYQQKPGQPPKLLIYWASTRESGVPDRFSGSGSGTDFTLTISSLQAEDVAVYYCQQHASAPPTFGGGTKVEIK

Tests used:
IL-27RA (WSX-1) [1] = biological target: T1, IL-27RA (WSX-1) (human, UniProt Q6UWB1 33-516, limits assumed); assay: SPR on WSX-1; trace (2), rhIL-27 alone, rises to about 210 RU; trace (1), rhIL-27 + Anti-IL-27 Ab1, stays at or below 0 RU
T1 construct: also called IL-27Rα; IL-27 receptor subunit alpha
T1 sequence: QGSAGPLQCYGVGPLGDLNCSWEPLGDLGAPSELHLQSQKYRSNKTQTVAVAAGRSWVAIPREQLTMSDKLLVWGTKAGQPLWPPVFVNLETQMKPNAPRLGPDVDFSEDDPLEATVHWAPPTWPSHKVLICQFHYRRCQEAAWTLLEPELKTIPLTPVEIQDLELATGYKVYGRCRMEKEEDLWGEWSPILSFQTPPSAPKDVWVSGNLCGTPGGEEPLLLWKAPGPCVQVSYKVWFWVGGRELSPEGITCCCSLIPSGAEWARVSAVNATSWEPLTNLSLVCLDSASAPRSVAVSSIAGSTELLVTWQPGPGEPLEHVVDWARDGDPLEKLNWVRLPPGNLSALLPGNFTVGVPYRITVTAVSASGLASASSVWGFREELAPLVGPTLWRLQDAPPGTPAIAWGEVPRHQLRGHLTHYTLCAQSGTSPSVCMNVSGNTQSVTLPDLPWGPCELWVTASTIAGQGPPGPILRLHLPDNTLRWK

gp130 [2] = biological target: T2, gp130 (human, UniProt P40189 23-619, limits assumed); assay: Drawn table Ligand / Analyte / Result, ligand gp130, analyte IL-27 heterodimer; method not named for this figure (SPR is used in the same example)
T2 construct: also called IL6ST; Interleukin-6 Signal Transducer
T2 sequence: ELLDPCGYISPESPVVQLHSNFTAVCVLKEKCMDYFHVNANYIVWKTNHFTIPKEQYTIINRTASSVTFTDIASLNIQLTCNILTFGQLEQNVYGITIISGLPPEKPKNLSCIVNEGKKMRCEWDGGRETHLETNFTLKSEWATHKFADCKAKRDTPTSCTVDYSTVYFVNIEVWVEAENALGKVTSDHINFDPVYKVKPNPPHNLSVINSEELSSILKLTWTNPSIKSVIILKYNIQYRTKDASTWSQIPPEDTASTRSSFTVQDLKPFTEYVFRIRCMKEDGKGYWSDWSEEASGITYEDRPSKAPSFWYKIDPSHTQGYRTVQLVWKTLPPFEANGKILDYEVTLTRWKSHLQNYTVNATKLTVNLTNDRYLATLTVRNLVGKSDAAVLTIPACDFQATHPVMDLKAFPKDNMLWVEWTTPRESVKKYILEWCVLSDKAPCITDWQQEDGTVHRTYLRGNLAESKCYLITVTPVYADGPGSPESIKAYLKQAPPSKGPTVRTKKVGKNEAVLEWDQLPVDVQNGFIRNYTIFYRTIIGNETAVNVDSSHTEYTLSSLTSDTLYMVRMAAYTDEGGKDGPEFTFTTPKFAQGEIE

gp130 [3] = biological target: T2, gp130; assay: SPR on gp130; trace (2), rhIL-27 alone, and trace (1), rhIL-27 + Anti-IL-27 Ab1, both rise to about 45 RU
gp130 [4] = biological target: T2, gp130; assay: Drawn table Ligand / Analyte / Result, ligand gp130, analyte p28 alone; method not named for this figure (SPR is used in the same example)
human IL-27p28 subunit [5] = biological target: B2; assay: Drawn table Ligand / Analyte / Result, ligand p28 held by Anti-IL-27 Ab3 (anti-p28), analyte EBI3; method not named for this figure (SPR is used in the same example)
human IL-27p28 subunit [6] = biological target: B2; assay: binding affinity data of FIG. 17; method not stated
IL-27RA (WSX-1) [7] = biological target: T1, IL-27RA (WSX-1); assay: Drawn table Ligand / Analyte / Result, ligand WSX-1, analyte EBI3 alone; method not named for this figure (SPR is used in the same example)
[8] = biological target: B1; assay: cell-based or functional assay
[9] = biological target: T3, recombinant cynomolgus monkey IL-27 (cynomolgus monkey, UniProt A0A2K5UBM6 29-244; A0A2K5WPB7 36-244); assay: cell-based or functional assay
T3 sequence (alpha): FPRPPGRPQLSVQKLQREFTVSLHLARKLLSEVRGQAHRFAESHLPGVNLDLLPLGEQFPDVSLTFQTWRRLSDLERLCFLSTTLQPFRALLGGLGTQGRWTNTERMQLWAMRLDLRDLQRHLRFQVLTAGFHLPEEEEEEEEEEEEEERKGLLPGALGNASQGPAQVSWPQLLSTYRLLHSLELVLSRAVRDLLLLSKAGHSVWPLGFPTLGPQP
T3 sequence (beta): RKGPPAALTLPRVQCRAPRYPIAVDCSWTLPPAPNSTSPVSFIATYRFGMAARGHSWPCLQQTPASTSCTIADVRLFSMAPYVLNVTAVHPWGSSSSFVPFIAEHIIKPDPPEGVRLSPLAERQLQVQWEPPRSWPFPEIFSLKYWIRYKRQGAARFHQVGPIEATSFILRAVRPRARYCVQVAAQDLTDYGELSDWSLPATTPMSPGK

recombinant mouse IL-27 = biological target: T4, recombinant mouse IL-27 (mouse, UniProt Q8K3I6 29-234; O35228 19-228); assay: cell-based or functional assay
T4 sequence (looked up) 1: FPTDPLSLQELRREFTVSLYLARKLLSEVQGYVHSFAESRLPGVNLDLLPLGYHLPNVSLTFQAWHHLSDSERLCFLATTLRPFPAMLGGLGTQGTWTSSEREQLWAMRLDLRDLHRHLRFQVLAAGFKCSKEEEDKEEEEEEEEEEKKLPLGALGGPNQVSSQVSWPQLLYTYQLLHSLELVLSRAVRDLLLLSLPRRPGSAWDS
T4 sequence (looked up) 2: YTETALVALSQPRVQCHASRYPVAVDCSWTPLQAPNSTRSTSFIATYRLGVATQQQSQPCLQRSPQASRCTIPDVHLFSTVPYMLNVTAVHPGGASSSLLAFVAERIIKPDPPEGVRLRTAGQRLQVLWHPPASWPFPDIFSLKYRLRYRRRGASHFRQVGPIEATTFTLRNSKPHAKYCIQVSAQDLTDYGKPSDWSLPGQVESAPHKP

[10] = biological target: B1; assay: cell-based or functional assay; remark: listed apart in the source
recombinant rat IL-27 = biological target: T5, recombinant rat IL-27 (rat, UniProt D3ZPW3 29-234; M0RD76 19-228); assay: cell-based or functional assay
T5 sequence (alpha): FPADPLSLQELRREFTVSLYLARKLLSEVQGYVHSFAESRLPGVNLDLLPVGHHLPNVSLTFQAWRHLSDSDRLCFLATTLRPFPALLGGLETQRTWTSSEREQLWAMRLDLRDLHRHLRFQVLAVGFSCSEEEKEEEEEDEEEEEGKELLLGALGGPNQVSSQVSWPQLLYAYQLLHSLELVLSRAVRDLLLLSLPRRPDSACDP
T5 sequence (beta): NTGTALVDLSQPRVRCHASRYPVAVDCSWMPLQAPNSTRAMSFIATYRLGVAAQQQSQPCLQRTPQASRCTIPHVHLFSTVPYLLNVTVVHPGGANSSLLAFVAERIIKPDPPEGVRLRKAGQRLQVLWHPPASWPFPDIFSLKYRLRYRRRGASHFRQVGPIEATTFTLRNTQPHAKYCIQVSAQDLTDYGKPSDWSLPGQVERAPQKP

With B1 the Kd (IL-27RA (WSX-1) [1]) was 0.0206 nM, the Kd (gp130 [2]) was 34 nM and the Kd (gp130 [3]) was 4.1 nM.

B2 gave a Kd (gp130 [4]) of ~1000 nM.

With B3 the Kd (human IL-27p28 subunit [5]) was 5.07 nM, the Kd (human IL-27p28 subunit [6]) was 5 nM and the Kd (IL-27RA (WSX-1) [7]) was 3.81 nM.

In the case of B4, the “IC50, inhibition of phosphorylation of STAT1 in HUT-78 cells (flow cytometry)” value [8] is reported as 0.08 µg/mL, the “IC50, inhibition of phosphorylation of STAT1 in U937 cells (flow cytometry)” value [8] is reported as 0.081 µg/mL and the “IC50, inhibition of phosphorylation of STAT1 in pooled human PBMCs (flow cytometry)” value [8] is reported as 0.141 µg/mL.

In the case of B5, the “Average IC50, ng/mL; IL-27 pSTAT1 signaling inhibition in peripheral blood T cells, cynomolgus monkey” value [9] is reported as 118 ng/mL, the “Average IC50, ng/mL; IL-27 pSTAT1 signaling inhibition in peripheral blood T cells, mouse” value (recombinant mouse IL-27) is reported as 1720 ng/mL and the “Average IC50, ng/mL; IL-27 pSTAT1 signaling inhibition in peripheral blood T cells, human” value [10] is reported as 78.4 ng/mL. For the same binder, the “Average IC50, ng/mL; IL-27 pSTAT1 signaling inhibition in peripheral blood T cells, rat” value (recombinant rat IL-27) was 273 ng/mL, the “IC50, inhibition of phosphorylation of STAT1 in HUT-78 cells (flow cytometry)” value [8] was 0.095 µg/mL and the “IC50, inhibition of phosphorylation of STAT1 in U937 cells (flow cytometry)” value [8] was 0.096 µg/mL. The “IC50, inhibition of phosphorylation of STAT1 in pooled human PBMCs (flow cytometry)” value [8] was 0.0583 µg/mL.
